Laboratory results as given in patent US5756684, “Cloning and expression of PUR protein” (Mount Sinai School of Medicine of the City of New York).

Columns and labels:
GST-Pur-alpha = target: T1, GST-Pur-alpha (Homo sapiens, UniProt Q00577 SEQ:1-322); experiment: EMSA; 7.5 pmol; Tat at 1:1 enhances binding nearly 10-fold; conditions: tags: N-terminal GST; label: 32P end
T1 sequence: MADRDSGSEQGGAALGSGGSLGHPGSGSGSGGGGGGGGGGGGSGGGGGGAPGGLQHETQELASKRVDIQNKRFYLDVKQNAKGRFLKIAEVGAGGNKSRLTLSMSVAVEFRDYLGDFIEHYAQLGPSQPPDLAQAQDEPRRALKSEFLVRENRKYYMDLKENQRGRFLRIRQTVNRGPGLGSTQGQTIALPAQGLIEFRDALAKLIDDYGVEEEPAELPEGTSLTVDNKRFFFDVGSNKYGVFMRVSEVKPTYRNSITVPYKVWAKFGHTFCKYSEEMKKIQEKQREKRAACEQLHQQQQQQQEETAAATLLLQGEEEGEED
Protocol: FIG. 21A. Specificity of binding of Purα to the JCV upTAR element. The different oligonucleotide probes used for the indicated reactions are: JCV+, the purine-rich single strand of the upTAR element; JCV ds, the double-stranded upTAR element, only the pyrimidine-rich strand of which is labeled; JCV−, the pyrimidine-rich strand of the upTAR element.
8.1.2. Binding of PURα to the JVC upTAR PUR Element in the Presence or Absence of Tat All gel shifts were performed as described in Section 6.1.2. using ^32P end-labeled 24-mer oligonucleotide probe representing a dimer of the upTAR element. The purine-rich strand of this oligonucleotide is: 5'-[…]-3' SEQ ID NO:51. For both panels A and B, all Tat, Purα and Purα deletion mutant proteins were employed GST fusion proteins prepared by purification on glutathione agarose columns as described for FIG. 20 and eluted with glutathione. In both panels for lanes labeled +, 7.5 pmoles of each indicated protein were used. Specificity of binding of Purα to the JCV upTAR element. The different oligonucleotide probes used for the indicated reactions are: JCV+, the purine-rich single strand of the upTAR element; JCV ds, the double-stranded upTAR element, only the pyrimidine-rich strand of which is labeled; JCV−, the pyrimidine-rich strand of the upTAR element. Effect of Tat upon biding of a series of Purα deletion mutants to the JCV upTAR element. […]

GST-Tat = GST-Tat (HIV-1, UniProt P04608 P04608:1-86); experiment: EMSA; Tat stated not to bind the upTAR element itself; conditions: tags: GST; label: 32P end

## GGAGGCGGAGGCGGAGGCGGAGGC (ssDNA) [JCV+ (upTAR purine-rich strand dimer)]
GST-Pur-alpha
  binding result: binds
GST-Tat
  binding result: no binding
